This passage reports protein production results from a protein production outcome set (Wang et al. 2014).

The series in a line: label from the status in PepcDB records.
Turning to “MAKYFGTDGIRGEVANSTITVEFTQKLGNAVGSLINQKNYPKFVIVGQDTRSSGGFLKFALVSGLNAAGIDVLDLGVVPTPVVAFMTVKHRAAAGFVITASHNKFTDNGIKLFSSNGFKLDDALEEEVEDMIDGDFIYQPQFKFGSYKILANAIDEYIESIYSRFAKFVNYKGKVVVDCAHGAASHNFEALLDKFGINYVSIASNPDGLNINVGCGATCVSNIKKAVKEQKADLGISLDGDADRIIIVDENGQEIDGDGILNILAQYSDICGGTNGIVGTQMTNMSYENHYRANKIPFIRSKVGDRYVLEDLVKYGYKIGGESSGHVINLNFGTTGDGLFTAIQLLAIFSQADKPVSEFKLQGELMQQTLINVPLTKKVAREDLQKVASDVNDVEKRLGNRGRVLLRPSGTEPVLRVMVEADDKSLATNEAEYLVEKVKQKLV”, the protein production result is “not failed”.

With “TVDRSVAIVGTRAMSHYGKSATSMLAAGIADHHWTIVSGGALGVDTVAHTEALQRQKPTVAVCARGLDAPYPRKNAELLRSIVETGCLVSEYAPGLTPHRHRFLTRNRLVAALSQGTVVVEAAWRSGALNTLSWASALGRVAMAVPGPVTNTGSLGCHERIRNKEAELVCSAEEILALVGTLGEFDPN”, the protein production result is “failed”.

As to “MRSDVVARAMRLIADGTVDRDGVSGLAAQLGYTIRQLERLLQAVVGAGPLALARAQRMQTARVLIETTNLPFGDVAFAAGFSSIRQFNDTVRLACDGTPTALRARAAARFESATASAGTVSLRLPVRAPFAFEGVFGHLAATAVPGCEEVRDGAYRRTLRLPWGNGIVSLTPAPDHVRCLLVLDDFRDLMTATARCRRLLDLDADPEAIVEALGADPDLRAVVGKAPGQRIPRTVDEAEFAVRAVLAQQVSTKAASTHAGRLVAAYGRPVHDRHGALTHTFPSIEQLAEIDPGHLAVPKARQRTINALVASLADKSLVLDAGCDWQRARGQLLALPGVGPWTAEVIAMRGLGDPDAFPASDLGLRLAAKKLGLPAQRRALTVHSARWRPWRSYATQHLWTTLEHPVNQWPPQEKIALEHHHHHH”, the protein production result was “failed”.

For “MHFCFISSISKIIDRYEIQHADELRALDLEEKIQNYLPHKELLETVQRLAVRHIFLPSSSDKKNVFFLLSTCEYSKLEEPNVDNVSVDSLISLEEQLETALSVSRARKAELMMEYIESLKEKVSALVFIFDKGHILGYDDS”, the protein production entry was “failed”.

Consider “MNLFRKCLLILGLASPLYLGLGQTSAHAEAVPPLAPTTCQATNLPQPSTAAIRELTPTGTLRVAINTGNYVLATEADDFGPFGISVDIAHLLAKGLGVPSEFTVVQAAAVSFERVSKNLSDIGFFGVDPWRAESVDYTNPYIQIEGAYIVRQDSPILTLADVDRAGIQIVVGKNSVYNLFLDRNIHHAHLVQAPTSPEVTGFMLAHKFPVGAGIRNQLVADMKRYGGLRILSTSFMIIHQAMATGKGRPQGLSYLQSFISELKKSGCIQELITKYAVDDAVVSP”, for which the protein production result was “failed”.

In the case of “LEDFNVTSKVIELDVRKPTPEAAENLNIGMDEDIYYVKRVRYINGQTLCYEESYYTKSIVTYLNNEIVSHSIFHYIREGLGLKIGFSDLFLHVGQLNEEEAEYLGLEAGLPKLYIESIFHLTNGQPFDYSKISYNYEQSQFVVQANSFLL”, the protein production entry is reported as “failed”.

As for “MHEIYIYLGIMFMPTYKHSHTPSHDIEDDEDEGTEHLVDELRTNAGAFEEEALVEKLLENLDLDEVEEDEHDAANASFFDSLHFSSIFVLQKREGENESF”, the protein production result is given as “failed”.

In the case of “MKLVFKWHDAPLSFMEGVFARGDRRLGAALRRAWELGCRFDGWGDRFDEAAWRTAFEETGIDPAFYHRRREPDEVLPWGHLDFGVTREFLLRELELSRQGAATEDLEHHHHHH”, the protein production entry is on record as “failed”.

In the case of “MNTLEIAKEVFEKEAQAILDLATNLDENFNQAVNLMLNTKGRCIVSGMGKSGHIGAKIAATLASTGTPSFFIHPGEALHGDLGMLTSEDVLIAISNSGETEEILKIIPAIKKREIPLIVMCGKKNSTLVKQGDIFLNIAVEKEACPLQLAPMSSTTATLVMGDALAAALMKVRNFKPDDFALFHPGGSLGRKLLTKVKDLMVSSNLPIVHPDTEFNDLVDVMTSGKLGLCVVLENEKLVGIITDGDLRRALKASDKPRFDFKAKEIMSINPKVVDADAMASEAEGIMLKHKIKEIIVGKEEKVVGIIQLYAIGNV”, the protein production entry is “not failed”.

For “PDIGTFTVRPLDPTRDAELLHGWVTHPKSAFWMMQEARLHDVEREYMAIAASEYHDAFLGLLDDEPVFLMEKYDPAHVELVGLYEPEPGDVGMHFLVAPTDTPVHGFTRAVITAVMEHLFADPATRRVVVEPDVGNKAVHALNEAVG”, the protein production entry is listed as “failed”.

Regarding “MKKTPIVFILFLLNFICLGQADTTMLLSDKAVQIEGTDAVNDLYNFKFEKAEGYFLYLKSQHPNHPMPYFLMALSNWWKMMPYIDNNDYTNAYEKEFLYYIDQTIEKGEEQFKADDQNVEAAFFLCAAHGFKGRYFSENKGYVKAAFAGKSALHYLTYTKGKGDLNPEFLFGESIFNYYAEWIKEEYPLLKPLVGLFPKGDKAVGLAQLKECATNAFYTRIEAQYFLLRIYTNEENNSRAAYPYAKYLSENFPDNPYFQRVYARLSFELGYYAQCEKICYDINYKVNIEMPGYEVNTGRYAAYFLGRILYEKSDLEKSKFYLLKTAAFAESGNMNKMGYSLSAYYYLGMIEVKSQNYSEAEKFFLKVIDLGEDKQDNSAVYNYSYASYQLASVYEKQQNTKRAESFYKDAIKRVKKLDEKSYASTIKEITANSEAGLERLKQPKK”, the protein production entry is on record as “failed”.

As to “MGAKGKFWILTMVVAISGLSQGVLLPLIAIILEEKGVSAGINGFHATGIYLGVLLVSPFIEAPLHKYGYKPIILVGGGLVAIAIFAFPIWFNLYFWFILRLLIGIGDHMLHFSSQTWIGAMSDPSKRGRNMAIYGLFFSVGFAIGPQLVNLAKVNANLPFFLSGILVLIAWSLVWFIRNDFVGEKAVIRKISFWGSIKRFSGVFKMAWVAMIPPFLYGILETGLNATFPVVGLRDGLDTMMIAMIISSFSVGTIIFQVPIGIISDKFGRDKMLPLLTGAGAVVFVLTAFVKIPIFFVIFFFILGILLGSLYSLGLSYMTDLTPLELLPAGNILVGMFFSLGSIIGPSATGMMIGIFGNQIFYFVVAGILLLGCLLLALGGRKEAH”, the protein production entry is given as “not failed”.

On to “MKVSDILTVAIRLEEEGERFYRELSEHFNGEIKKTFLELADQERIHAEIFRKMSDQENWDEVDSYLAGYAFYEVFPDTSEILRRKDLTLKEVLDIAISVEKDSIILYYELKDGLVNSDAQKTVKKIIDQEKEHLRKLLEMKREST”, for which the protein production entry is recorded as “not failed”.

Turning to “MSCKKTEKFSETWFFKWILNNQAVVSFLILLLIGLTVLIFTKISPIFSPVIQFLTIVMLPLVISMLLYYLIKPLVLLVERTGLNRTMSILVIYAILALLLVWGISTAIPNLQDQILILLRNAPSYISRANSETERWLKLPILSNFHGDLEAMLSDFSARMINYAENFSTSALSWIGTFASTVARVTVAIILTPFILFYLLRDSQKLKHSFVSALPTRFRETTVRMLSDINNQLEGYVRGQVTVAIVIAIMFCIMFKIVGLRYGMTFGILAGFLNMIPYLGSFIAMVPVVIMGLVQGPTMLIKVLIIFVIEQTIEGRFVSPLVLGNKLSIHPITIMFILLTAGSLYGVWGVLLGIPIYASVKVIVKDIFDWYRSVSNLYQDDIEIKGQKYDVK”, the protein production result is “failed”.

“EMRLEKDRFSVNLDVKHFSPEELKVKVLGDVIEVHGKHEERQDEHGFISREFHRKYRIPADVDPLTITSSLSSDGVLTVNGPRKQVSGPERTIPIT”: the protein production result is reported as “failed”.

As for “MPPPLRVLILEDSEDDYFLLVRALKREFDIVPERVDSEESLRANLCEKRWDIVLSDYFMPQFDALAALTLIQSMNLDIPFIIVSGKIGEFEAVKAMKAGAHDYIMKGDYTRLIPAIRRELREAVIRQEQRRTDHELREQLHFRQALIDAIPAPIYFMDTTGIFLGCNKAFEAFSGHTQDEIVGKTIYDLMPPSLAKHTDSADRELFEHGGIQIYESVISFADGALHDVIFYKATFTTTEKNIGGLVGTILDITERKQTEERLRYMSTHDTLTGLYNRAYFQEEMERLEQGRQFPVSVVVFDVDRLKYVNDSQGHAAGDELLIRAALVLKGAFRAEDVVARIGGDEFAVLLPSADADVVQEALRRVIGKIEQSQTEDHPVPLSISFGAATASKGDRLEEVLKLADRRMYENKFKKCCVLPA”, the protein production entry is reported as “failed”.

As to “MKALLPGLYLLPVPIPYPLKTVNLYLLQGAGEVALVDTALGTRAARGALELHLAELGLCFQDVKTILLTHHHPDHYGLSGFFEGLGARVFLHEEEFARGHRFWREPEAFAEASWRLFLDHGTPEGALQGIRETVEKTRERVHPPQNPLPLRDGEALEVAGKRLRVLWTPGHADGHAAFYLEEEGVLLAGDALLEKVSPNVGLWAYTRENPLKDFLRSLDRLADLGARVAYAGHFGPIADVRQRAEELKAHHQARLEALLALLDGPKTAWELSLHLFPQELDPAGRRFAFAETLAHLEYLREEGAVGRGGPPYRYFRR”, the protein production entry is recorded as “not failed”.

Regarding “MLSAVRRANLYLNLFGFSKVPLIWLCHPKIIAIDSKHVEVRIPLRRRTKNHLNSMYFGALAVGADVAGGFLAMSKAQEKGEAISLAFKGVKAEFLKRPEADVHFVCNDGHVIDEMLDHTIATGERVNRDVKIIALCPSLHGQEPMAEFALTLSIKKAAQHTKLEHHHHHH”, the protein production result is recorded as “not failed”.

Regarding “MASTGASRSLAASPRPPQGRSSRQDKYSVLLPTYNERENLPLIVWLLVKSFSESAINYEIIIIDDGSPDGTREVAEQLAEIYGPDRILLRPREKKLGLGTAYIHGIKHATGNYVIIMDADLSHHPKFIPEFIRKQKEGNFDIVSGTRYKGNGGVYGWDLKRKIISRGANFITQILLRPGASDLTGSFRLYRKEVLQKLIEKCVSKGYVFQMEMIVRARQMNYTIGEVPISFVDRVYGESKLGGNEIVSFLKGLLTLFATT”, the protein production entry was “failed”.

Take “MMSQISLADLNAADKADFVAALANVVEYSPWIAEKLAGQRPFTGINQLHAALMAAIQSAEPDVQLALIRAHPDLANKTQRAAGLTAESTDEQNSAGLDRLSDAEYAAFERVNNAYREKFGFPYIVCVRRHTKDSVLRDFETRLLNIAKTETRRAIEEIGRISALRLDQLVVADDKLKVHGRLSTHVLDNHAGKPAPGIPVELIELASLGESRVIARTVTNADGRTDQPLIGGRPLPIGRYELRFRVAKYYAERNVPLSEPPFLDEIPLRFAISEPENHYHVPLLVTPWSYATYRGS”: the protein production result was “failed”.

With “MSLEIIKTGLAAFGMSGQVFHAPFISTNPHFELYKIVERSKELSKERYPQASIVRSFKELTEDPEIDLIVVNTPDNTHYEYAGMALEAGKNVVVEKPFTSTTKQGEELIALAKKKGLMLSVYQNRRWDADFLTVRDILAKSLLGRLVEYESTFARYRNFIKPNTWKETGESGGGLTYNLGSHLIDQAIQLFGMPEAVFADLGILREGGKVDDYFIIHLLHPSLAPNVKITLKASYLMREAEPRFALHGTLGSYVKYGVDKQEAALLAGEIPERPNWGEESEQEWGLLHTEINGKEICRKYPGIAGNYGGFYQNIYEHLCLGQPLETHAQDILNVIRIIEAAYQSHRENKIVNLKEGHHHHHH”, the protein production entry is recorded as “not failed”.

For the sequence “MNNINTIIQREYMIRVRKKSFLVMTILMPILFVGLVSLPIVLAQLGGDMKTIAIADRTGEYEQLFKENDEFRFVHAEKTAEEYRKMGADKSGIDAVLEIRQDLLEDPNAVAIYGYKQLPASVSNHISRILSDYLSDKKIASYNIPDIKQILADSKIELSVHTYKWSEDGTNERTSGELASGISMMMMVVIFFLIMTLAAMVQAGVLEEKKNRIMEVMVSSTRPFNLMMGKIIGIGLVGLTQLICWGVLTVLLLTVAQIAFLGNLYSPEALSRMQASDITGMASSMNAEDFAEMKEVMNIIGGINFGELFVMFLIFFIGGYLLYSSIFAVIGSMVSNDEDTSQFMMPVMILLMFGFYAAYGSMNNPEGSLAFWCSLIPFTSPLVMMVRLPYDVPLWQELLSIGLLYGCFVLMTWIGAKIYRVGVLMYGKKPSIKEIIRWINYK”, the protein production result is listed as “failed”.
